Source: paper PMC10397247
Read-outs that look alike come from different tables or passages of the source.

T1: P2-AA-12HGe-A
T1 chain: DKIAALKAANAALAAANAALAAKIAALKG

T2: P2-AA-12HGe-D
T2 chain: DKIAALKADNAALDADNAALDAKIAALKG

T3: P2-AA-12HGe-E
T3 chain: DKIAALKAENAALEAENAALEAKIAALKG

T4: P2-AA-12HGe-H
T4 chain: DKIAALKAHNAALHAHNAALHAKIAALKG

T5: P2-AA-12HGe-M
T5 chain: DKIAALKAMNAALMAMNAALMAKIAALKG

T6: P2-AA-12HGe-Q
T6 chain: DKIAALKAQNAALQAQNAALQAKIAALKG

T7: P2-AA-12HGe-R
T7 chain: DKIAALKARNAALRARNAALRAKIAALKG

T8: P2-AA-12HGe-S
T8 chain: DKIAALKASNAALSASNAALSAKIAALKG

T9: P2-AA-12HGe-T
T9 chain: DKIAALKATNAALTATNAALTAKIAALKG

T10: P2-AA-12HGe-W
T10 chain: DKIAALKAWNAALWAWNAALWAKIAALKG

T11: P2-AA
T11 chain: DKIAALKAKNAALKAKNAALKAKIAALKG

T12: AP5-AA
T12 chain: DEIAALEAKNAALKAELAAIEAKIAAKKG

T13: AP6-AA
T13 chain: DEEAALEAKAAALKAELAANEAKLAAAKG

T14: AP7-AA
T14 chain: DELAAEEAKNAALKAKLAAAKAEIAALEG

T15: AP8-AA
T15 chain: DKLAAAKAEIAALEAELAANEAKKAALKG

T16: P1-AA
T16 chain: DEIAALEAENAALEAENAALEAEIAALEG

T17: P10-AA
T17 chain: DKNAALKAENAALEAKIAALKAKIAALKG

T18: P11-AA
T18 chain: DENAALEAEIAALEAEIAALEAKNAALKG

T19: P12-AA
T19 chain: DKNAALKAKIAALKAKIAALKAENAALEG

T20: P3-AA
T20 chain: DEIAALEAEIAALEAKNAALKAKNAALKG

T21: P4-AA
T21 chain: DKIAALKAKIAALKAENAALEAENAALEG

T22: P7-AA
T22 chain: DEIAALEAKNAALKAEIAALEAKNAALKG

T23: P8-AA
T23 chain: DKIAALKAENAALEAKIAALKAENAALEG

T24: P9-AA
T24 chain: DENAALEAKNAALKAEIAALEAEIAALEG


How the values were obtained:
Experiment in all cases: two-hybrid library CCmax;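 note: natural log of median RNA to DNA barcode read ratio; higher means stronger binding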
P2-AA-12HGe-A = target: T1, P2-AA-12HGe-A; details: mean of both orientations
P2-AA-12HGe-D = target: T2, P2-AA-12HGe-D
P2-AA-12HGe-E = target: T3, P2-AA-12HGe-E; details: mean of both orientations
P2-AA-12HGe-H = target: T4, P2-AA-12HGe-H; details: mean of both orientations
P2-AA-12HGe-M = target: T5, P2-AA-12HGe-M; details: mean of both orientations
P2-AA-12HGe-Q = target: T6, P2-AA-12HGe-Q; details: mean of both orientations
P2-AA-12HGe-R = target: T7, P2-AA-12HGe-R; details: mean of both orientations
P2-AA-12HGe-S = target: T8, P2-AA-12HGe-S
P2-AA-12HGe-T = target: T9, P2-AA-12HGe-T; details: mean of both orientations
P2-AA-12HGe-W = target: T10, P2-AA-12HGe-W; details: mean of both orientations
P2-AA = target: T11, P2-AA; details: mean of both orientations
AP5-AA = target: T12, AP5-AA
AP6-AA = target: T13, AP6-AA; details: mean of both orientations
AP7-AA = target: T14, AP7-AA; details: mean of both orientations
AP8-AA = target: T15, AP8-AA; details: mean of both orientations
GCN2_T = target: GCN2_T
P1-AA = target: T16, P1-AA; details: mean of both orientations
P10-AA = target: T17, P10-AA; details: mean of both orientations
P11-AA = target: T18, P11-AA; details: mean of both orientations
P12-AA = target: T19, P12-AA; details: mean of both orientations
P3-AA = target: T20, P3-AA; details: mean of both orientations
P4-AA = target: T21, P4-AA; details: mean of both orientations
P7-AA = target: T22, P7-AA; details: mean of both orientations
P8-AA = target: T23, P8-AA; details: mean of both orientations
P9-AA = target: T24, P9-AA; details: mean of both orientations

Binder | interaction score (P2-AA-12HGe-A) | interaction score (P2-AA-12HGe-D; mean of both orientations) | interaction score (P2-AA-12HGe-E) | interaction score (P2-AA-12HGe-H) | interaction score (P2-AA-12HGe-M) | interaction score (P2-AA-12HGe-Q) | interaction score (P2-AA-12HGe-R) | interaction score (P2-AA-12HGe-S; mean of both orientations) | interaction score (P2-AA-12HGe-T) | interaction score (P2-AA-12HGe-W) | interaction score (P2-AA) | other results
DEIAALEAYNAALYAYNAALYAEIAALEG [P1-AA-12HGe-Y] | -0.289 | -1.65 | 2.36 | -1.21 | 1.77 | 0.637 | -0.521 | -1.06 | -0.661 | -0.349 | -0.194 | –
DEIAALEAKNAALKAELAAIEAKIAAKKG [AP5-AA] | – | – | – | – | – | – | – | – | – | – | -1.24 | interaction score (AP5-AA): -0.918; interaction score (AP6-AA): 1.53; interaction score (AP7-AA): -1.69; interaction score (AP8-AA): -1.08; interaction score (GCN2_T): -0.794; interaction score (P1-AA): -1.35; interaction score (P10-AA): 1.37; interaction score (P11-AA): -0.907; interaction score (P12-AA): -1.41; interaction score (P3-AA): -1.62; interaction score (P4-AA): -0.912; interaction score (P7-AA): -0.672; interaction score (P8-AA): 2.11; interaction score (P9-AA): -0.644
DEIAALEATNAALTATNAALTAEIAALEG [P1-AA-12HGe-T] | 0.941 | -1.6 | 1.26 | -1.51 | -0.103 | 0.761 | -0.61 | -0.683 | -0.824 | -1.56 | -0.397 | –
DEIAALEADNAALDADNAALDAEIAALEG [P1-AA-12HGe-D] | -2.7 | -1.75 | -1.55 | -1.41 | -2.19 | -1.62 | 1.33 | -1.99 | -1.52 | -2.14 | 1.36 | –
DEIAALEAKNAALKAKNAALKAEIAALEG [P1-AA-12HGe-K] | 1.6 | 0.189 | 2.31 | -1.62 | 0.464 | 1.06 | -1.01 | 0.655 | -0.493 | -2.11 | -0.289 | –
DEIAALEAHNAALHAHNAALHAEIAALEG [P1-AA-12HGe-H] | 0.105 | -1.6 | 2 | -1.82 | -0.622 | 0.16 | -1.54 | -1.37 | -1.51 | -1.45 | -1.14 | –
DEIAALEAANAALAAANAALAAEIAALEG [P1-AA-12HGe-A] | 1.6 | -1.64 | 1.62 | 0.332 | 1.4 | 1.96 | 0.662 | – | 1.71 | 0.0222 | 1.49 | interaction score (P2-AA-12HGe-S): -0.384
DEIAALEAWNAALWAWNAALWAEIAALEG [P1-AA-12HGe-W] | 1.75 | -1.76 | 1.5 | -1.02 | 0.936 | 1.69 | 0.108 | -0.243 | -0.385 | -0.0819 | -1.08 | –
DEIAALEAMNAALMAMNAALMAEIAALEG [P1-AA-12HGe-M] | 1.71 | -1.52 | 2.2 | 0.866 | 1.82 | 2.16 | 1.45 | 1.02 | 1.77 | 0.93 | 1.39 | –
DEIAALEAQNAALQAQNAALQAEIAALEG [P1-AA-12HGe-Q] | 1.99 | -1.92 | 2.09 | 0.459 | 1.64 | 1.8 | 1.56 | 0.227 | 1.03 | -0.264 | 1.92 | –
DEIAALEASNAALSASNAALSAEIAALEG [P1-AA-12HGe-S] | -0.678 | – | 0.07 | -1.82 | -0.332 | 0.702 | 1 | -1.39 | -1.11 | -1.58 | 0.744 | interaction score (P2-AA-12HGe-D): -1.82
DEIAALEARNAALRARNAALRAEIAALEG [P1-AA-12HGe-R] | 1.68 | 1.05 | 2.08 | -0.986 | -0.0699 | 1.28 | -0.893 | 1.19 | 0.3 | -1.15 | -0.71 | –
